Drawing on article PMC11446282 (2024), this text covers percent of parent for seven variants.

B1: PME1 (found with purified B55 variants) [human] / B55α WT (immunopurified, Fig. 2) [not stated] (parent complex)
chain 1: MSALEKSMHLGRLPSRPPLPGSGGSQSGAKMRMGPGRKRDFSPVPWSQYFESMEDVEVENETGKDTFRVYKSGSEGPVLLLLHGGGHSALSWAVFTAAIISRVQCRIVALDLRSHGETKVKNPEDLSAETMAKDVGNVVEAMYGDLPPPIMLIGHSMGGAIAVHTASSNLVPSLLGLCMIDVVEGTAMDALNSMQNFLRGRPKTFKSLENAIEWSVKSGQIRNLESARVSMVGQVKQCEGITSPEGSKSIVEGIIEEEEEDEEGSESISKRKKEDDMETKKDHPYTWRIELAKTEKYWDGWFRGLSNLFLSCPIPKLLLLAGVDRLDKDLTIGQMQGKFQMQVLPQCGHAVHEDAPDKVAEAVATFLIRHRFAEPIGGFQCVFPGC
chain 2: MAGAGGGNDIQWCFSQVKGAVDDDVAEADIISTVEFNHSGELLATGDKGGRVVIFQQEQENKIQSHSRGEYNVYSTFQSHEPEFDYLKSLEIEEKINKIRWLPQKNAAQFLLSTNDKTIKLWKISERDKRPEGYNLKEEDGRYRDPTTVTTLRVPVFRPMDLMVEASPRRIFANAHTYHINSISINSDYETYLSADDLRINLWHLEITDRSFNIVDIKPANMEELTEVITAAEFHPNSCNTFVYSSSKGTIRLCDMRASALCDRHSKLFEEPEDPSNRSFFSEIISSISDVKFSHSGRYMMTRDYLSVKIWDLNMENRPVETYQVHEYLRSKLCSLYENDCIFDKFECCWNGSDSVVMTGSYNNFFRMFDRNTKRDITLEASRENNKPRTVLKPRKVCASGKRKKDEISVDSLDFNKKILHTAWHPKENIIAVATTNNLYIFQDKVN

Variants of B1 are the subject of the assay. In words: immunopurification of YFP-B55α variants (IP: YFP), Western blot quantification; read off a plot.
chain 2 MAGAGGGNDIQWCFSQVKGAVDDDVAEADIISTVEFNHSGELLATGDKGGRVVIFQQEQENKIQSHSRGEYNVYSTFQSHEPEFDYLKSLEIEEKINKIRWLPQKNAAQFLLSTNDKTIKLWKISERDKRPEGYNLKEEDGRYRDPTTVTTLRVPVFRPMDLMVEASPRRIFANAHTYHINSISINSDYETYLSADDLRINLWHLEITDRSFNIVDIKPANMEELTEVITAAEFHPNSCNTFVYSSSKGTIRLCDMRASALCDRHSKLFEEPEDPSNRSFFSEIISSISDVKFSHSGRYMMTRDYLSVKIWDLNMENRPVETYQVHEYLRSKLCSLAENDCIFDKFECCWNGSDSVVMTGSYNNFFRMFDRNTKRDITLEASRENNKPRTVLKPRKVCASGKRKKDEISVDSLDFNKKILHTAWHPKENIIAVATTNNLYIFQDKVN [chain 2 Y337A]: the percent of parent was ~53%.
The figure for chain 2 MAGAGGGNDIQWCFSQVKGAVDDDVAEADIISTVEFNHSGELLATGDKGGRVVIFQQEQENKIQSHSRGEYNVYSTFQSHEPEFDYLKSLEIEEKINKIRWLPQKNAAQFLLSTNDKTIKLWKISERDKRPEGYNLKEEDGRYRDPTTVTTLRVPVFRPMDLMVEASPRRIFANAHTYHINSISINSDYETYLSADDARINLWHLEITDRSFNIVDIKPANMEELTEVITAAEFHPNSCNTFVYSSSKGTIRLCDMRASALCDRHSKLFEEPEDPSNRSFFSEIISSISDVKFSHSGRYMMTRDYLSVKIWDLNMENRPVETYQVHEYLRSKLCSLYENDCIFDKFECCWNGSDSVVMTGSYNNFFRMFDRNTKRDITLEASRENNKPRTVLKPRKVCASGKRKKDEISVDSLDFNKKILHTAWHPKENIIAVATTNNLYIFQDKVN [chain 2 L198A] is ~2%.
Take chain 2 MAGAGGGNDIQWCFSQVKGAVDDDVAEADIISTVEFNHSGELLATGDKGGRVVIFQQEQENKIQSHSRGEYNVYSTFQSHEPEFDYLKSLEIEEKINKIRWLPQKNAAQFLLSTNDKTIKLWKISERDKRPEGYNLKEEDGRYRDPTTVTTLRVPVFRPMDLMVEASPRRIFANAHTYAINSISINSDYETYLSADDLRINLWHLEITDRSFNIVDIKPANMEELTEVITAAEFHPNSCNTFVYSSSKGTIRLCDMRASALCDRHSKLFEEPEDPSNRSFFSEIISSISDVKFSHSGRYMMTRDYLSVKIWDLNMENRPVETYQVHEYLRSKLCSLYENDCIFDKFECCWNGSDSVVMTGSYNNFFRMFDRNTKRDITLEASRENNKPRTVLKPRKVCASGKRKKDEISVDSLDFNKKILHTAWHPKENIIAVATTNNLYIFQDKVN [chain 2 H179A]: the percent of parent is ~170%.
The figure for chain 2 MAGAGGGNDIQWCFSQVKGAVDDDVAEADIISTVEFNHSGELLATGDKGGRVVIFQQEQENKIQSHSRGEYNVYSTFQSHEPEFDYLKSLEIEEKINKIRWLPQKNAAQFLLSTNDKTIKLWKISERDKRPEGYNLKEEDGRYRDPTTVTTLRVPVFRPMDLMVEASPRRIFANAHTYHINSISINSDYETYLSADDLRINLWHLEITDRSFNIVDIKPANMEEATEVITAAEFHPNSCNTFVYSSSKGTIRLCDMRASALCDRHSKLFEEPEDPSNRSFFSEIISSISDVKFSHSGRYMMTRDYLSVKIWDLNMENRPVETYQVHEYLRSKLCSLYENDCIFDKFECCWNGSDSVVMTGSYNNFFRMFDRNTKRDITLEASRENNKPRTVLKPRKVCASGKRKKDEISVDSLDFNKKILHTAWHPKENIIAVATTNNLYIFQDKVN [chain 2 L225A] is ~3%.
Next, chain 2 MAGAGGGNDIQWCFSQVKGAVDDDVAEADIISTVEFNHSGELLATGDKGGRVVIFQQEQENKIQSHSRGEYNVYSTFQSHEPEFDYLKSLEIEEKINKIRWLPQKNAAQFLLSTNDKTIKLWKISERDKRPEGYNLKEEDGRYRDPTTVTTLRVPVFRPMDLMVEASPRRIFANAHTYHINSISINSDYETYLSADALRINLWHLEITDRSFNIVDIKPANMEELTEVITAAEFHPNSCNTFVYSSSKGTIRLCDMRASALCDRHSKLFEEPEDPSNRSFFSEIISSISDVKFSHSGRYMMTRDYLSVKIWDLNMENRPVETYQVHEYLRSKLCSLYENDCIFDKFECCWNGSDSVVMTGSYNNFFRMFDRNTKRDITLEASRENNKPRTVLKPRKVCASGKRKKDEISVDSLDFNKKILHTAWHPKENIIAVATTNNLYIFQDKVN [chain 2 D197A]: ~3%; chain 2 MAGAGGGNDIQWCFSQVKGAVDDDVAEADIISTVEFNHSGELLATGDKGGRVVIFQQEQENKIQSHSRGEYNVYSTFQSHEPEFDYLKSLEIEEKINKIRWLPQKNAAQFLLSTNDKTIKLWKISERDKRPEGYNLKEEDGRYRDPTTVTTLRVPVFRPMDLMVEASPRRIFANAHTAHINSISINSDYETYLSADDLRINLWHLEITDRSFNIVDIKPANMEELTEVITAAEFHPNSCNTFVYSSSKGTIRLCDMRASALCDRHSKLFEEPEDPSNRSFFSEIISSISDVKFSHSGRYMMTRDYLSVKIWDLNMENRPVETYQVHEYLRSKLCSLYENDCIFDKFECCWNGSDSVVMTGSYNNFFRMFDRNTKRDITLEASRENNKPRTVLKPRKVCASGKRKKDEISVDSLDFNKKILHTAWHPKENIIAVATTNNLYIFQDKVN [chain 2 Y178A]: ~13%; chain 2 MAGAGGGNDIQWCFSQVKGAVDDDVAEADIISTVEFNHSGELLATGDKGGRVVIFQQEQENKIQSHSRGEYNVYSTFQSHEPEFDYLKSLEIEEKINKIRWLPQKNAAQFLLSTNDKTIKLWKISERDKRPEGYNLKEEDGRYRDPTTVTTLRVPVFRPMDLMVEASPRRIFANAHTYHINSISINSDYETYLSADDLRINLWHLEITDRSFNIVDIKPANMEELTEAITAAEFHPNSCNTFVYSSSKGTIRLCDMRASALCDRHSKLFEEPEDPSNRSFFSEIISSISDVKFSHSGRYMMTRDYLSVKIWDLNMENRPVETYQVHEYLRSKLCSLYENDCIFDKFECCWNGSDSVVMTGSYNNFFRMFDRNTKRDITLEASRENNKPRTVLKPRKVCASGKRKKDEISVDSLDFNKKILHTAWHPKENIIAVATTNNLYIFQDKVN [chain 2 V228A]: ~9%.
